doi:10.1101/2021.01.30.428887
Like-named read-outs stand apart in the source and are kept apart here.

Experiments:
Experiment in all cases: quadruple optical trap force measurement
[1] = target: Human vimentin C328N with three additional amino acids, GGC, at the C-terminus (human)
[2] = target: Human vimentin C328N with three additional amino acids, GGC, at the C-terminus (human); remark: listed apart in the source
[3] = target: Human vimentin C328N with three additional amino acids, GGC, at the C-terminus (human); remark: listed apart in the source
[4] = target: Human vimentin C328N with three additional amino acids, GGC, at the C-terminus (human); remark: listed apart in the source
[5] = target: Human vimentin C328N with three additional amino acids, GGC, at the C-terminus (human); remark: listed apart in the source
[6] = target: Human vimentin C328N with three additional amino acids, GGC, at the C-terminus (human); remark: listed apart in the source
[7] = target: Human vimentin C328N with three additional amino acids, GGC, at the C-terminus (human); remark: listed apart in the source

Substance: Human vimentin C328N with three additional amino acids, GGC, at the C-terminus (natural protein)
- koff [1]: 0.1 s⁻¹
- maximal interaction (rupture) force [2]: 85 pN
- maximal interaction (rupture) force [3]: 57 pN
- koff [4]: 0.08 s⁻¹
- koff [5]: 0.2 s⁻¹
- koff [6]: 0.15 s⁻¹
- koff [7]: 0.18 s⁻¹
- maximal interaction (rupture) force [7]: 112 pN
